Experiment: Saturation mutagenesis of SEQ ID NO:109: dicamba decarboxylation activity of point mutants (CO2 released), fold of backbone (Tables 7, 8, Megatable 1)
Conditions: decarboxylation activity (CO2 released) of point mutant vs unmutated backbone protein; backbone SEQ ID NO: 109

Row | Molecule | Fold Activity [fold]
1 | 97 (protein, listed as Sphingobium sp.) MAMMIIDCHGHYTVLPKAHDEWREQQKAAFKAGQPAPPYPEISDDEIRETIEANQLRLIKERGADMTIFSPRASAMAPHVGDQSVAVPWAQACNNLIARVVDLFPETFAGVCMLPQSPEADMTSSIAELERCVNELGFIGCNLNPDPGGGHFKHPPLTDRFWYPFYEKMVELDVPAMIHVSGSCNPAMHATGAYYLAADTIAFMQLLQGNLFADFPTLRFIIPHGGGAVPYHWGRFRGLADMLKQPSLDTLLMNNVFFDTCVYHQPGINLLADVIDNKNILFGSEMVGAVRGIDPTTGHYFDDTKRYIDALDISDQERHAIFEGNTRRVFPRLDAKLKARGL | 2.9
2 | 96 (protein, Aspergillus nidulans) MAPLIVDVHTHVYPPAYMQMLRSRKTVPYVHDPSNNRDPRLIILSSDDDASIPLDQRGRPVDSSYWDINVKLSFMRQHGINCSVISLANPWLDFVEPAEAQMWAERINDDLEKTCATVNKAADPGNTLTLDQKETLFAFGALPLSAPSSESVVAEIKRLKTLEHLRGVIMGTSGLGKGLDDARLDPVWEALQETDMLMFLHPHYGLPEEAYGGPETTGRYGHVLPLALGFPLETTIAVTRMLLSGVFDRFPRLKILLAHSGGTLPFLAGRIESCILHERKFISGGGDVQGPQRSVWDVLKTNIYLDAVVYGKPGLEAAMTASGSDRLLFGTDHPFFPPLDSKDNSWPSVTTNYQAIHATFDTNSKTVADVLGGNAARILNLK | 1.1

Experiment: DNA shuffling libraries: 14CO2 capturing assay in 384-well format, fold activity of backbone (Megatable 2)
Conditions: relative to backbone SEQ ID NO: 509 (DDEC0810)

Row | Molecule | Fold Activity [fold]
3 | 583 (protein, Dicamba decarboxylase variant) MAQGKVALEEHFAIPETLQDAAGFVPGDYWKELQHRLLDIQDTRLKEMDKHEIGTMILSLAAPAVQGIPDRRKAIELAKRANDFLAEEVAKRPDRFLAFAALPLQDPEAATEELQRCVNDLGFVGAMVNGFSQEGDGQTPLYYDLPQYRPFWKEVEKLDVPFYLHPRNPLPQDSRIYDGHPWLLGPTWAFAQETAVHALRLMASGLFDEHPRLNIILGHLGEGLPYMMYRIDHRIAWVKAPPRYPAKRRFMDYFLENFWITTSGNFRTQTLIDAILEIGADRILFSTDWPFENIDHAADWFAATSIAEADRVKIGRTNARRLFKLDVR | 1.0
4 | 580 (protein, Dicamba decarboxylase variant) MAQGLVALEEHFAIPETLNDAAGFVPGDYWKELQHRLLDIQDTRLKEMDKHEIGTMVLSLAAPAVQAIPDRRQAIELARRANDFLAEEVAKRPDRFLAFAALPLQDPDAATEELQRCVADLGFVGAMVNGFSQEGDGQTPLYYDLPQYRPFWGEVEKLDVPFYLHPRNPLPQDARIYDGHPWLLGPTWAFAQETAVHALRLMASGLFDEHPRLNIILGHMGEGLPYMMYRIDHRIAWVKAPPRYPAKRRFMDYFLENFHITTSGNFRTQTLIDAILEIGADRILFSTDWPFENIDHAADWFAATSIAEADRVKIGRTNARRLFKLDGR | 1.3
5 | 582 (protein, Dicamba decarboxylase variant) MAQGLVALEEHFAIPETLNDAAGFVPGDYWKELQHRLMDIQDTRLKEMDKHEIGTMVLSLAAPAVQAIPDRRKAIEIARRANDFLAEEVAKRPDRFLAFAALPLQDPDAATEELQRCVNDLGFVGAMVNGFSQEGDGQTPLYYDLPQYRPFWGEVEKLDVPFYLHPRNPLPQDARIYDGHPWLLGPTWAFAQETAVHALRLMASGLFDEHPRLNIILGHMGEGLPYMMYRIDHRIAWVKAPPDYPAKRRFMDYFLENFHITTSGNFRTQTLIDAILEIGADRILFSTDWPFENIDHAADWFNATSIAEADRVKIGRTNARRLFKLDGS | 1.4
6 | 575 (protein, Dicamba decarboxylase variant) MAQGLVALEEHFAIPETLQDAAGFVPGDYWKELQHRLLDIQDTRLKEMDKHGIGTMILSLAAPAVQAIPDRRKAIELARRANDFLAEEVAKRPDRFLAFAALPLQDVDAATSELQRCVADLGFVGAMVNGFSQEGDGQTPLYYDLPQYRPFWKEVEKLDVPFYLHPRNPLPQDARIYDGHPWLLGPTWAFAQETAVHALRLMASGLFDEHPRLNIILGHLGEGLPYMMYRIDHRIAWVHATPRYPAKRRFMDYFLENFHITTSGNFRTQTLIDAILEIGADRILFSTDWPFENIDHAADWFNATSIAEADRVKIGRTNARRLFKLDVR | 1.3
7 | 581 (protein, Dicamba decarboxylase variant) MAQGLVALEEHFAIPETLQDAAGFVPGDYWKELQHRLLDIQDTRLKEMDKHEIGTMVLSLAAPAVQAIPDRRKAIELAKRANDFLAEEVAKRPDRFLAFAALPLQDVDAATSELQRCVADLGFVGAMVNGFSQEGDGQTPLYYDLPQYRPFWKEVEKLDVPFYLHPRNPLPQDARIYDGHPWLLGPTWAFAQETAVHALRLMASGLFDEHPRLNIILGHMGEGLPYMMYRIDHRIAWVKAPPDYPAKRRFMDYFLENFHITTSGNFRTQTLIDAILEIGADRILFSTDWPFENIDHAADWFAATSIAEADRVKIGRTNARRLFKLDGS | 1.1
8 | 576 (protein, Dicamba decarboxylase variant) MAQGLVALEEHFAIPETLQDAAGFVPGDYWKELQHRLLDIQDTRLKEMDKHGIGTMVLSLAAPAVQAIPDRRKAIEIARRANDFLAEEVAKRPDRFLAFAALPLQDVDAATEELQRCVADLGFVGAMVNGFSQEGDGQTPLYYDLPQYRPFWGEVEKLDVPFYLHPRNPLPQDARIYDGHPWLLGPTWAFAQETAVHALRLMASGLFDEHPRLNIILGHLGEGLPYMMYRIDHRIAWVEAPPDYPAKRRFMDYFLENFHITTSGNFRTQTLIDAILEIGADRILFSTDWPFENIDHAADWFAATSIAEADRVKIGRTNARRLFKLDGR | 1.2
9 | 586 (protein, Dicamba decarboxylase variant) MAQGLVALEEHFAIPETLQDAAGFVPGDYWKELQHRLLDIQDTRLKEMDKHEIGTMVLSLAAPAVQAIPDRRKAIELARRANDFLAEEVAKRPDRFLAFAALPLQDVDAATEELQRCVNDLGFVGAMVNGFSQEGDGQTPLYYDLPQYRPFWKEVEKLDVPFYLHPRNPLPQDSRIYDGHPWLLGPTWAFAQETAVHALRLMASGLFDEHPRLNIILGHLGEGLPYMMYRIDHRIAWVHAPPDYPAKRRFMDYFLENFHITTSGNFRTQTLIDAILEIGADRILFSTDWPFENIDHAADWFNATSIAEADRVKIGRTNARRLFKLDVR | 1.2
10 | 585 (protein, Dicamba decarboxylase variant) MAQGKVALEEHFAIPETLQDAAGFVPGDYWKELQHRLMDIQDTRLKEMDKHEIGTMVLSLAAPAVQAIPDRRKAIELAKRANDFLAEEVAKRPDRFLAFAALPMQDPEAATEELQRCVADLGFVGAMVNGFSQEGDGQTPLYYDLPQYRPFWGEVEKLDVPFYLHPRNPLPQDARIYDGHPWLLGPTWAFAQETAVHALRLMASGLFDEHPRLNIILGHMGEGLPYMMYRIDHRIAWVKAPPDYPAKRRFMDYFLENFWITTSGNFRTQTLIDAILEIGADRILFSTDWPFENIDHAADWFAATSIAEADRVKIGRTNARNLFKLDVS | 1.8
11 | 578 (protein, Dicamba decarboxylase variant) MAQGLVALEEHFAIPETLQDAAGFVPGDYWKELQHRLLDMQDERLKEMDRHGIGTMVLSLAAPAVQAIPDRRKAIEIARRANDFLAEEVAKRPDRFLAFAALPLQDVDAATEELQRCVNDLGFVGAMVNGFSQEGDGQTPLYYDLPQYRPFWGEVEKLDVPFYLHPRNPLPQDSRIYDGHPWLLGPTWAFAQETAVHALRLMASGLFDEHPRLNIILGHLGEGLPYMMYRIDHRIAWVKAPPDYPAKRRFMDYFLENFWITTSGNFRTQTLIDAILEIGADRILFSTDWPFENIDHAADWFAATSIAEADRVKIGRTNARNLFKLDGR | 0.9
12 | 584 (protein, Dicamba decarboxylase variant) MAQGKVALEEHFAIPETLNDAAGFVPGDYWKELQHRLLDIQDTRLKEMDKHGIGTMILSLAAPAVQGIVDRRQAIEIAKRANDFLAEEVAKRPDRFLAFAALPLQDPDAATSELQRCVADLGFVGAMVNGFSQEGDGQTPLYYDLPQYRPFWKEVEKLDVPFYLHPRNPLPQDARIYDGHPWLLGPTWAFAQETAVHALRLMASGLFDEHPRLNIILGHMGEGLPYMMYRIDHRIAWVKAPPDYPAKRRFMDYFLENFHITTSGNFRTQTLIDAILEIGADRILFSTDWPFENIDHAADWFAATSIAEADRVKIGRTNARRLFKLDVR | 0.9
13 | 577 (protein, Dicamba decarboxylase variant) MAQGLVALEEHFAIPETLNDAAGFVPGDYWKELQHRLLDIQDERLKEMDKHGIGTMILSLAAPAVQAIPDRRKAIEIAKRANDFLAEEVAKRPDRFLAFAALPLQDVDAATEELQRCVADLGFVGAMVNGFSQEGDGQTPLYYDLPQYRPFWKEVEKLDVPFYLHPRNPLPQDSRIYDGHPWLLGPTWAFAQETAVHALRLMASGLFDEHPRLNIILGHMGEGLPYMMYRIDHRIAWVKAPPRYPAKRRFMDYFLENFWITTSGNFRTQTLIDAILEIGADRILFSTDWPFENIDHAADWFAATSIAEADRVKIGRTNARRLFKLDVS | 1.2
14 | 579 (protein, Dicamba decarboxylase variant) MAQGLVALEEHFAIPETLNDAAGFVPGDYWKELQHRLLDIQDTRLKEMDKHEIGTMVLSLAAPAVQAIPDRRQAIELAKRANDFLAEEVAKRPDRFLAFAALPLQDVEAATEELQRCVADLGFVGAMVNGFSQEGDGQTPLYYDLPQYRPFWKEVEKLDVPFYLHPRNPLPQDSRIYDGHPWLLGPTWAFAQETAVHALRLMASGLFDEHPRLNIILGHMGEGLPYMMYRIDHRIAWVKAPPDYPAKRRFMDYFLENFHITTSGNFRTQTLIDAILEIGADRILFSTDWPFENIDHAADWFNATSIAEADRVKIGRTNARRLFKLDGS | 1.0

Reference: patent US20160040149A1, “Compositions Having Dicamba Decarboxylase Activity and Methods of Use” (priority 2013, published 2016)
